Earlier results as cited in publication PMC6160412.
Read-outs that look alike come from different tables or passages of the source.

Target: Neurexin-1β (+S4) (Mus musculus) (UniProt P0DI97)
Assay: SPR

Chain of Neurexin-1β (+S4) (Mus musculus) (P0DI97 47-392): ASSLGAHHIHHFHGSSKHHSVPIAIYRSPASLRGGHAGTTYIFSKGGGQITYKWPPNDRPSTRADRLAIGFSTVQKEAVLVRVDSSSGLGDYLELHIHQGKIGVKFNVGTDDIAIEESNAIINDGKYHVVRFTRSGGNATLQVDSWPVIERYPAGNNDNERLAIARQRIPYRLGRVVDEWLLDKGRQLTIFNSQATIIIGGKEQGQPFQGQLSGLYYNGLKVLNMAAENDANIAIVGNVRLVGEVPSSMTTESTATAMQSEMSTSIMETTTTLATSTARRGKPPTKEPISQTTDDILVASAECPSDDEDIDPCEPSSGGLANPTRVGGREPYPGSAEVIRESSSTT
Chain of Neuroligin-1 (Q99K10 46-843): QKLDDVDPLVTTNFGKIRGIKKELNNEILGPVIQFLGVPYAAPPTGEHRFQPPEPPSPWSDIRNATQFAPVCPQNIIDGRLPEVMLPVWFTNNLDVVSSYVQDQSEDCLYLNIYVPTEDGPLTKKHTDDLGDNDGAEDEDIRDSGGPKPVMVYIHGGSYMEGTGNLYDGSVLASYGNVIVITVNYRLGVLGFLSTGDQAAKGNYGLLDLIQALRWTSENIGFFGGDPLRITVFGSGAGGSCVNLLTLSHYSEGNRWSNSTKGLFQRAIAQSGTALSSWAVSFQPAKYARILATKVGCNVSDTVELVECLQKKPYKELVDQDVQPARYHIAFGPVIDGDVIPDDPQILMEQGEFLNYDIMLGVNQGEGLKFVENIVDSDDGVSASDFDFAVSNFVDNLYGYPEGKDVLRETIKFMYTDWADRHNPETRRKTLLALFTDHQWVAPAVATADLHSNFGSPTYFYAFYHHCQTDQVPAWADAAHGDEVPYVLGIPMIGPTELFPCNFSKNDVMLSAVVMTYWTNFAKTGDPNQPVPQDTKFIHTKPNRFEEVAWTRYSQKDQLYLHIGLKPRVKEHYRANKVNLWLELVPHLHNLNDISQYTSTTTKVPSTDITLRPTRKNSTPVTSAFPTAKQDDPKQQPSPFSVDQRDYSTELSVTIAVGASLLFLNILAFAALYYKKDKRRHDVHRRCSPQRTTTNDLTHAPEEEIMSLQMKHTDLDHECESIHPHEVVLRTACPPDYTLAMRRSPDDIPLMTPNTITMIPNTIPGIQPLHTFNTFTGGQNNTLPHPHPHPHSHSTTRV

Kd | Kd (record 2) | Substance
0.7 µM | 2.6 µM | Neuroligin-1 (from UniProt Q99K10)
2.5 µM | 9.7 µM | Neuroligin-4 (from UniProt Q8N0W4)
